Test results: paper PMC6092330

Target: acid-purified histones (human (endogenous in TE-7))

B1: recombinant GST-tagged full-length IL-33 (H00090865-P01, Abnova) (natural protein)
chain: MKPKMKYSTNKISTAKWKNTASKALCFKLGKSQQKAKEVCPMYFMKLRSGLMIKKEACYFRRETTKRPSLKTGRKHKRHLVLAACQQQSTVECFAFGISGVQKYTRALHDSSITGISPITEYLASLSTYNDQSITFALEDESYEIYVEDLKKDEKKDKVLLSYYESQHPSNESGDGVDGKMLMVTLSPTKDFWLHANNKEHSVELHKCEKPLPDQAFFVLHNMHSNCVSFECKTDPGVFIGVKDNHLALIKVDSSENLCTENILFKLSET
B1 gave a CCL2 secretion by HMC-1 mast cells (42-cytokine multiplex array), fold change against untreated, 23.4 nM recombinant WT IL-33 without and with 6.7 µg/mL acid-purified histones of 822 fold.
